According to the supplement of paper PMC10065799, “High-throughput profiling of sequence recognition by tyrosine kinases and SH2 domains using bacterial peptide display” (eLife, 2023):

test system: AncSZ; assay: phosphorylation enrichment, bacterial display (enrichment ratio); higher = better substrate or ligand; peptides without Tyr show the background
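Note: 11-residue human phosphosite peptides and single-mutation variants displayed on the E. coli surface, counted by deep sequencing, each peptide's frequency after selection divided by its frequency in the unselected input library; frequency after pTyr selection over input frequency; kinase dosed for 20-30% of maximal phosphorylation in three min.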

| Sequence | phosphorylation enrichment |
| --- | --- |
| RHPEVYHHLGI [NVL_Y290_V295I] | 0.694 |
| IQKKFYRAILE [CHD7_Y1218_YF] | 0.523 |
| KNRDVYSSDFF [USP24_Y2134_YF] | 0.651 |
| KQRKEYMHRRQ [IQGAP2_Y710] | 0.696 |
| NTYENYWPFYQ [GATM_Y103_K102N] | 2.72 |
| ISRLKYPVSQQ [BTK_Y375] | 0.419 |
| PGNIVYSSLCG [BCOR_Y90] | 1.38 |
| PNRILYRDFRQ [MYH7_Y715_G716R] | 0.633 |
| PQIVNYSPDCI [LDHB_Y128_K127N] | 0.415 |
| GNLLIYTEFGN [HGD_Y166_K171N] | 1.31 |
| LIGRRCDDPEV [HSPA9_Y128_Y128C] | 1.76 |
| DRSSLYLVAGP [KIAA1614_Y1083_N1078D] | 1.25 |
| NTILLYHIMAW [GPR143_Y157_S152N] | 1.52 |
| PHQTIYGALMI [FGF23_Y70_S71G] | 0.849 |
| IHFAIYFLKYS [ARMC9_Y107_L108F] | 1.21 |
| EQKKYYNAVKK [SCN5A_Y1495_M1498V] | 0.529 |
| NIWDSYTTNKV [GNB1_Y85_I80N] | 1 |
| PQAVTYATVKH [LILRB4_Y360_K362T] | 0.655 |
| KPGVNYFFQVS | 1.15 |
| ISDNAYQFMLT [MYH7_Y162_YF] | 1.22 |
| LFVDVYGPSVP [NUBPL_Y109_D105Y_YF] | 1.23 |
| KNEVLYDEENH [ARFGEF1_Y314_G316E] | 1.25 |
| RESFKYLPSSL [CXXC1_Y218_F219L_YF] | 0.561 |
| HCEDGYPGGSD [CTNND1_Y221_Y217C] | 1.44 |
| CGTPTYLAPEV [CHEK2_Y390] | 2.38 |
| QYNMQYSSSAA [ERBB2IP_Y981_I979M] | 0.882 |
| GGRIDYIAGLD [APRT_Y60] | 0.898 |
| RDHFGYRQSVT [CD55_Y245_YF] | 0.722 |
| YQLENYCNGGG [INS_Y108] | 0.768 |

target: Hck (UniProt P08631); assay: as above
Sequence (P08631 whole entry, looked up): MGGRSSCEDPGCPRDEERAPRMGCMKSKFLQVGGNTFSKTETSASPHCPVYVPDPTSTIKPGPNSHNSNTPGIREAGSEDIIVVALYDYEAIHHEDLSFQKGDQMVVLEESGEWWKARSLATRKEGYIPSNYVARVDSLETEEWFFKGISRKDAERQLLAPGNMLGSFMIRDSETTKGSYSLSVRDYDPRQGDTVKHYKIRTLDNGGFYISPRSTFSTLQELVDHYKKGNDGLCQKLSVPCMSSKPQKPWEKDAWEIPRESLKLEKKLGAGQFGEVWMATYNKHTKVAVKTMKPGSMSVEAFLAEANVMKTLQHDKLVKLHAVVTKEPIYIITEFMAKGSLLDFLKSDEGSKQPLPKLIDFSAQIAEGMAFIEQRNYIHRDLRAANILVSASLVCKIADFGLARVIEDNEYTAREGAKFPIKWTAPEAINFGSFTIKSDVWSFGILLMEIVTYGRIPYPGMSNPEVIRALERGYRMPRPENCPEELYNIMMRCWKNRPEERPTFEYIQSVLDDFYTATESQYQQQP

| Sequence | phosphorylation enrichment |
| --- | --- |
| RHPEVYHHLGI [NVL_Y290_V295I] | 1.53 |
| IQKKFYRAILE [CHD7_Y1218_YF] | 0.332 |
| KNRDVYSSDFF [USP24_Y2134_YF] | 0.832 |
| KQRKEYMHRRQ [IQGAP2_Y710] | 0.526 |
| NTYENYWPFYQ [GATM_Y103_K102N] | 7.34 |
| ISRLKYPVSQQ [BTK_Y375] | 0.352 |
| PGNIVYSSLCG [BCOR_Y90] | 5.25 |
| PNRILYRDFRQ [MYH7_Y715_G716R] | 0.452 |
| PQIVNYSPDCI [LDHB_Y128_K127N] | 1 |
| GNLLIYTEFGN [HGD_Y166_K171N] | 3.51 |
| LIGRRCDDPEV [HSPA9_Y128_Y128C] | 0.575 |
| DRSSLYLVAGP [KIAA1614_Y1083_N1078D] | 0.842 |
| NTILLYHIMAW [GPR143_Y157_S152N] | 1.56 |
| PHQTIYGALMI [FGF23_Y70_S71G] | 7.87 |
| IHFAIYFLKYS [ARMC9_Y107_L108F] | 0.787 |
| EQKKYYNAVKK [SCN5A_Y1495_M1498V] | 0.352 |
| NIWDSYTTNKV [GNB1_Y85_I80N] | 0.497 |
| PQAVTYATVKH [LILRB4_Y360_K362T] | 2.92 |
| KPGVNYFFQVS | 0.588 |
| ISDNAYQFMLT [MYH7_Y162_YF] | 0.684 |
| LFVDVYGPSVP [NUBPL_Y109_D105Y_YF] | 1.5 |
| KNEVLYDEENH [ARFGEF1_Y314_G316E] | 0.547 |
| RESFKYLPSSL [CXXC1_Y218_F219L_YF] | 0.381 |
| HCEDGYPGGSD [CTNND1_Y221_Y217C] | 0.714 |
| CGTPTYLAPEV [CHEK2_Y390] | 0.776 |
| QYNMQYSSSAA [ERBB2IP_Y981_I979M] | 0.732 |
| GGRIDYIAGLD [APRT_Y60] | 0.52 |
| RDHFGYRQSVT [CD55_Y245_YF] | 0.489 |
| YQLENYCNGGG [INS_Y108] | 0.568 |

target: Fyn (UniProt P06241); assay: as above
Sequence (P06241 whole entry, looked up): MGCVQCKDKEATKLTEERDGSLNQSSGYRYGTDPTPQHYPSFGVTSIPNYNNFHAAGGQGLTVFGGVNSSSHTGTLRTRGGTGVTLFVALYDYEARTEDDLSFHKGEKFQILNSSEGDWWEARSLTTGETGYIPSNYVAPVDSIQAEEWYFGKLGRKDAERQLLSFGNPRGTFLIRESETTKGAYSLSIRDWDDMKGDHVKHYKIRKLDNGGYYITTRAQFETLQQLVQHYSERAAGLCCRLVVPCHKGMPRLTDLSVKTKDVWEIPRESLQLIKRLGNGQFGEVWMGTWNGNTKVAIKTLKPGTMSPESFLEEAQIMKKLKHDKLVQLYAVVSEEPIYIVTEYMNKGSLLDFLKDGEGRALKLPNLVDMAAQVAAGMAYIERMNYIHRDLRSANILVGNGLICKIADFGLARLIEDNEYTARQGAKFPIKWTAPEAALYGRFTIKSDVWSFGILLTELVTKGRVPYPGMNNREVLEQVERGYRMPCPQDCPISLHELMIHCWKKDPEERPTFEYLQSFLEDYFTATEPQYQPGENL

| Sequence | phosphorylation enrichment |
| --- | --- |
| RHPEVYHHLGI [NVL_Y290_V295I] | 0.908 |
| IQKKFYRAILE [CHD7_Y1218_YF] | 0.344 |
| KNRDVYSSDFF [USP24_Y2134_YF] | 0.833 |
| KQRKEYMHRRQ [IQGAP2_Y710] | 0.477 |
| NTYENYWPFYQ [GATM_Y103_K102N] | 9.01 |
| ISRLKYPVSQQ [BTK_Y375] | 0.355 |
| PGNIVYSSLCG [BCOR_Y90] | 3.13 |
| PNRILYRDFRQ [MYH7_Y715_G716R] | 0.307 |
| PQIVNYSPDCI [LDHB_Y128_K127N] | 0.457 |
| GNLLIYTEFGN [HGD_Y166_K171N] | 5.81 |
| LIGRRCDDPEV [HSPA9_Y128_Y128C] | 1.12 |
| DRSSLYLVAGP [KIAA1614_Y1083_N1078D] | 0.523 |
| NTILLYHIMAW [GPR143_Y157_S152N] | 0.8 |
| PHQTIYGALMI [FGF23_Y70_S71G] | 10.6 |
| IHFAIYFLKYS [ARMC9_Y107_L108F] | 0.723 |
| EQKKYYNAVKK [SCN5A_Y1495_M1498V] | 0.328 |
| NIWDSYTTNKV [GNB1_Y85_I80N] | 0.416 |
| PQAVTYATVKH [LILRB4_Y360_K362T] | 1.72 |
| KPGVNYFFQVS | 0.538 |
| ISDNAYQFMLT [MYH7_Y162_YF] | 0.654 |
| LFVDVYGPSVP [NUBPL_Y109_D105Y_YF] | 1.16 |
| KNEVLYDEENH [ARFGEF1_Y314_G316E] | 0.537 |
| RESFKYLPSSL [CXXC1_Y218_F219L_YF] | 0.469 |
| HCEDGYPGGSD [CTNND1_Y221_Y217C] | 0.817 |
| CGTPTYLAPEV [CHEK2_Y390] | 0.627 |
| QYNMQYSSSAA [ERBB2IP_Y981_I979M] | 0.736 |
| GGRIDYIAGLD [APRT_Y60] | 0.409 |
| RDHFGYRQSVT [CD55_Y245_YF] | 0.435 |
| YQLENYCNGGG [INS_Y108] | 0.57 |

target: FGFR1 (UniProt P11362); assay: as above
Sequence (P11362 whole entry, looked up): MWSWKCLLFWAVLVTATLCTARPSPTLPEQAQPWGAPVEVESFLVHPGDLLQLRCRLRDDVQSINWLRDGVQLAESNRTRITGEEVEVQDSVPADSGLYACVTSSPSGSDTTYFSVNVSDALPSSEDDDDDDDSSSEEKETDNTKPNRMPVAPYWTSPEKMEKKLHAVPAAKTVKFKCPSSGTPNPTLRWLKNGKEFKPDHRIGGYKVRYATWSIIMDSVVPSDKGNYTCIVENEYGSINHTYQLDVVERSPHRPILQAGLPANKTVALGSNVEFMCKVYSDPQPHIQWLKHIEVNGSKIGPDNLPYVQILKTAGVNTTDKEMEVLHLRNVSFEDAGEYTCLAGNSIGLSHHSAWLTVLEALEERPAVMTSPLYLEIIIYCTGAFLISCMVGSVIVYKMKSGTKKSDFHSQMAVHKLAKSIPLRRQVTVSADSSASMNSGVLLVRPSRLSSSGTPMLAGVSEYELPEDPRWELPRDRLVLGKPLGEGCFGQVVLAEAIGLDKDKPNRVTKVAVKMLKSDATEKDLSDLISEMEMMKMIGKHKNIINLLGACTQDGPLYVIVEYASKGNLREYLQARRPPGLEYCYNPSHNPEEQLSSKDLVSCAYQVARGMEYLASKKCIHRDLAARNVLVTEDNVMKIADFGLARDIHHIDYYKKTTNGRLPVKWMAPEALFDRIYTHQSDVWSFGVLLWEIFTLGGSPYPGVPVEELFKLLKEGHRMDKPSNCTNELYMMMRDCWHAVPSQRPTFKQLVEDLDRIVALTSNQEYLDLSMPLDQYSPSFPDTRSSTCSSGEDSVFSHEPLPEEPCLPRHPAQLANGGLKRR

| Sequence | phosphorylation enrichment |
| --- | --- |
| RHPEVYHHLGI [NVL_Y290_V295I] | 1.14 |
| IQKKFYRAILE [CHD7_Y1218_YF] | 0.37 |
| KNRDVYSSDFF [USP24_Y2134_YF] | 0.718 |
| KQRKEYMHRRQ [IQGAP2_Y710] | 0.375 |
| NTYENYWPFYQ [GATM_Y103_K102N] | 14.3 |
| ISRLKYPVSQQ [BTK_Y375] | 0.317 |
| PGNIVYSSLCG [BCOR_Y90] | 0.892 |
| PNRILYRDFRQ [MYH7_Y715_G716R] | 0.472 |
| PQIVNYSPDCI [LDHB_Y128_K127N] | 0.684 |
| GNLLIYTEFGN [HGD_Y166_K171N] | 0.726 |
| LIGRRCDDPEV [HSPA9_Y128_Y128C] | 0.697 |
| DRSSLYLVAGP [KIAA1614_Y1083_N1078D] | 0.593 |
| NTILLYHIMAW [GPR143_Y157_S152N] | 3.19 |
| PHQTIYGALMI [FGF23_Y70_S71G] | 0.57 |
| IHFAIYFLKYS [ARMC9_Y107_L108F] | 0.666 |
| EQKKYYNAVKK [SCN5A_Y1495_M1498V] | 0.425 |
| NIWDSYTTNKV [GNB1_Y85_I80N] | 0.497 |
| PQAVTYATVKH [LILRB4_Y360_K362T] | 0.423 |
| KPGVNYFFQVS | 0.85 |
| ISDNAYQFMLT [MYH7_Y162_YF] | 1.83 |
| LFVDVYGPSVP [NUBPL_Y109_D105Y_YF] | 0.482 |
| KNEVLYDEENH [ARFGEF1_Y314_G316E] | 0.591 |
| RESFKYLPSSL [CXXC1_Y218_F219L_YF] | 0.329 |
| HCEDGYPGGSD [CTNND1_Y221_Y217C] | 0.664 |
| CGTPTYLAPEV [CHEK2_Y390] | 1.12 |
| QYNMQYSSSAA [ERBB2IP_Y981_I979M] | 0.792 |
| GGRIDYIAGLD [APRT_Y60] | 0.447 |
| RDHFGYRQSVT [CD55_Y245_YF] | 0.471 |
| YQLENYCNGGG [INS_Y108] | 0.536 |
